From patent US20050202010A1, “Method of treatment and bioassay involving macrophage migration inhibitory factor (MIF) as cardiac-derived myocardial depressant factor” (priority 2003, published 2005)
Several values for one entry are separate records, joined by “and”; a condition that tells them apart may be missing. Identical values can stand only once.

Tests used:
CD74 KO mouse hearts = assay: Langendorff, rhMIF added to perfusate, CD74 KO mouse hearts; set-up: LVP / +dP/dt / −dP/dt / TPP / CVR: unit not given beside the values
[1] = system: spontaneously beating normal mouse hearts (endotoxin resistant C3H/HeJ); assay: Langendorff preparation, hearts perfused with rMIF (C3H/HeJ); settings: 20 ng/ml rMIF, 1.5 ml/m
Experimental: Determination of cardiac function in response to rMIF. C57BL/6J and C3H/HeJ mice were used in the Langendorff assays. Briefly, 200 U heparin sulfate was given i.p., the mice sacrificed 20 m later, and the heart immediately removed and placed on ice in Krebs-Hanseleit Buffer ([…], 118 mM NaCl, 4.7 mM KCL, 1.2 mM KH2PO4, 1.2 mM MgSO4, 2.5 mM CaCl2, 11.1 mM glucose, pH 7.4, which was prepared fresh with demineralized, deionized water and bubbled with 95% O2 and 5% CO2 (PO2 590 mmHg, pCO2 38 mmHg)). The aorta was cannulated with PE50 tubing, the heart perfused in a retrograde manner through the aortic root with prefiltered, oxygenated Krebs-Hanseleit Buffer at a constant flow rate of 1.5 ml/m (T 37° C.) and a recirculating volume of 100 ml. The heart was placed in a water-jacketed chamber to maintain constant temperature and humidity. PE60 intratnedic polyethylene tubing was connected to a Statham pressure transducer inserted into the left ventricle (LV) to measure LV pressure. Temperature was monitored using a 27 G thertnistor needle inserted into the LV muscle. […] Following stabilization, LV pressure and its first derivative (dP/dt), heart rate, and coronary perfusion were measured simultaneously with a multichannel Grass 7D polygraph (Grass Instruments, Quincy, M A). Cardiac function for all hearts was determined by plotting peak systolic LV pressure and ±dP/dt,Ia, values against changes in coronary flow rate.
MIF induces systolic and diastolic cardiac dysfunction. […] Responses to MIF were determined in hearts from both C57BL/6J mice, and C3H/HeJ mice. C3H/HeJ mice are resistant to endotoxin (41-43), therefore controlling for the possibility that any depression observed might be due to trace endotoxin in the perfusate. Table 2 illustrates the responses of both mouse strains to retrograde aortic perfusion at 1.5 ml/m with control perfusate or perfusate containing 20 ng/ml recombinant MIF. Perfusion with MIF led to a significant decrease in LVP, +dP/dtmax, and −dP/dt max in both mouse strains. FIG. 4 illustrates the effect of MIF over a range of coronary flow rates. […]

[2] = CD74 K/O + rhMIF, single hearts by date and mean (x), n 3
[3] = CD74 K/O + rhMIF, single hearts by date and mean (x), n 3, mean
[4] = CD74 KO + rhMIF in perfusate, n = 3

B1: rMIF: recombinant human macrophage migration inhibitory factor added to the heart perfusate at 20 ng/ml (protein, UniProt P14174 2-115, looked up)
Macrophage migration …: PMFIVNTNVPRASVPDGFLSELTQQLAQATGKPPQYIAVHVVPDQLMAFGGSSEPCALCSLHSIGKIGGAQNRSYSKLLCGLLAERLRISPDRVYINYYDMNAANVGWNNSTFA
+dP/dt (CD74 KO mouse hearts; [2]): 1800 and 1600 and 2200
CVR (CD74 KO mouse hearts; [2]): 45 and 53 and 71
DR (CD74 KO mouse hearts; [2]): 1.286 and 1.455 and 1.222
HR (CD74 KO mouse hearts; [2]): 320 and 325
LVP (CD74 KO mouse hearts; [2]): 64 and 50 and 88
Max + d (CD74 KO mouse hearts; [2]): 45 and 50 and 40
Max − d (CD74 KO mouse hearts; [2]): 53 and 52
RT90 (CD74 KO mouse hearts; [2]): 80 and 72
TPP (CD74 KO mouse hearts; [2]): 70 and 75 and 63
dP40 (CD74 KO mouse hearts; [2]): 1900
−dP/dt (CD74 KO mouse hearts; [2]): 1400 and 1100 and 1800
+dP/dt (CD74 KO mouse hearts; [3]): 1866.667
CVR (CD74 KO mouse hearts; [3]): 56.33
DR (CD74 KO mouse hearts; [3]): 1.321
HR (CD74 KO mouse hearts; [3]): 321.6667
LVP (CD74 KO mouse hearts; [3]): 67.33
Max − d (CD74 KO mouse hearts; [3]): 52.67
RT90 (CD74 KO mouse hearts; [3]): 77.33
TPP (CD74 KO mouse hearts; [3]): 69.33
dP40 (CD74 KO mouse hearts; [3]): 1666.667
−dP/dt (CD74 KO mouse hearts; [3]): 1433.333
+dP/dt max (CD74 KO mouse hearts; [4]): 1867 ± 176 mmHg/sec
Coronay Perfusion Pressue (CD74 KO mouse hearts; [4]): 86.0 ± 23.6 mmHg
Coronay Vascular Resistance (CD74 KO mouse hearts; [4]): 56.3 ± 7.7 mmHg
Heart Rate (CD74 KO mouse hearts; [4]): 322 ± 2 bpm
Left Ventricular Pressure (CD74 KO mouse hearts; [4]): 67.3 ± 14.4 mmHg
Time to 90% Relaxation (CD74 KO mouse hearts; [4]): 77.3 ± 2.7 ms
Time to Max +dP/dt (CD74 KO mouse hearts; [4]): 45.0 ± 2.9 ms
Time to Max −dP/dt (CD74 KO mouse hearts; [4]): 52.7 ± 0.3 ms
Time to Peak Pressue (CD74 KO mouse hearts; [4]): 69.3 ± 3.5 ms
dP40 (CD74 KO mouse hearts; [4]): 1662 ± 120 mmHg/sec
−dP/dt max (CD74 KO mouse hearts; [4]): 1433 ± 202 mmHg/sec
+dP/dt max ([1]; n = 7): 1800 ± 106 mm Hg/see
−dP/dt max ([1]; n = 7): 1343 ± 138 mm Hg/sec
LVP ([1]; n = 7, mean peak): 75.2 ± 5.5 mm Hg
